These results are taken from paper PMC13334617 (Advanced Science, 2026).

The assay concerns the target wild-type AC fused to GFP (AC-GFP), encoded by plasmid pAC0-Gfp (GFP: Aequorea victoria (variant not …, UniProt P42212 = GFP)). As to the kind of experiment: two-hybrid. As to conditions: partners not purified.

B1: CaM fused to the V9A nanobody at its N-terminus and a tetra-cysteine tag at its C-terminus (CaM-V9A), encoded by plasmid pTCam-V9A (VHH)
VHH: DVQLQESGGGSVQAGGSLRLSCAASGDTFSSYSMAWFRQAPGKECELVSNILRDGTTTYAGSVKGRFTISRDDAKNTVYLQMVNLKSEDTARYYCAADSGTQLGYVGAVGLSCLDYVMDYWGKGTQVTVSS
notes: source: E. coli DHM1, expressed in cells from plasmid pTCam-V9A (high expression); not shown: tetra-cysteine tag, C-terminal, kept
B1: the “cAMP” value is above 250 nmol/mg and the “ß gal (Rel. Units)” value came to 107 Rel. Units.
